Changes are numbered by the printed parent chain.
Experiments:
[1] = target: T1, Flag-USP21 C221A (catalytically inactive mutant) (human, UniProt Q9UK80 1-565, C221A); assay: pull-down; bacterially expressed GST or GST-FOXD1 immobilised (GST Protein Interaction Pull-Down Kit, Thermo Scientific), incubated with Flag-USP21 WT or C221A from HEK293T cells; analysed by Coomassie Brilliant Blue; details: both partners purified
T1 construct: also called C221A mutant; source: HEK293T, transfected, in lysate (co-IP); for the GST pull-down 'lysed from HEK293T cells' (methods), 'purified recombinant protein' (results)
T1 sequence (looked up): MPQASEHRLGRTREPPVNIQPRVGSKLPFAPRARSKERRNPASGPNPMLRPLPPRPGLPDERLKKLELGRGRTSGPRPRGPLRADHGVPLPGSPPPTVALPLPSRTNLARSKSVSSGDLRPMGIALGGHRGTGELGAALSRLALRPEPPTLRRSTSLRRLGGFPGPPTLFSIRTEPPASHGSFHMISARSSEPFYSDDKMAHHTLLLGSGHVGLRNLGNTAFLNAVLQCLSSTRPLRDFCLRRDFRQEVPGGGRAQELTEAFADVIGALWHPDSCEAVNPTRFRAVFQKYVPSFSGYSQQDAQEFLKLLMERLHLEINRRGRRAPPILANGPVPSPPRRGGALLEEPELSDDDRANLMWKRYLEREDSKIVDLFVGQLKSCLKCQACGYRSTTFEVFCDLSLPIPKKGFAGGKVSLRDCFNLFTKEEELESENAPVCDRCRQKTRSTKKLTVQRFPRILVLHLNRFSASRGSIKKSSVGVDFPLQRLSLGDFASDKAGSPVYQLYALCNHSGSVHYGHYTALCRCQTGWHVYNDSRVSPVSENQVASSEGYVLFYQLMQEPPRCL

[2] = target: T2, Flag-USP21 WT (ubiquitin-specific peptidase 21) (human, UniProt Q9UK80 1-565); assay: as above; details: both partners purified
T2 construct: ubiquitin-specific peptidase 21 (USP21), wild type; overexpression plasmid bought from GeneChem; source: HEK293T, transfected, in lysate (co-IP); for the GST pull-down 'lysed from HEK293T cells' (methods), 'purified recombinant protein' (results)
T2 sequence (looked up): T1 sequence (looked up) with A221C

binding result [1]: binds
binding result [2]: binds
B1: GST-FOXD1 (natural protein, UniProt Q16676 1-465, looked up)
chain: MTLSTEMSDASGLAEETDIDVVGEGEDEEDEEEEDDDEGGGGGPRLAVPAQRRRRRRSYAGEDELEDLEEEEDDDDILLAPPAGGSPAPPGPAPAAGAGAGGGGGGGGAGGGGSAGSGAKNPLVKPPYSYIALITMAILQSPKKRLTLSEICEFISGRFPYYREKFPAWQNSIRHNLSLNDCFVKIPREPGNPGKGNYWTLDPESADMFDNGSFLRRRKRFKRQPLLPPNAAAAESLLLRGAGAAGGAGDPAAAAALFPPAPPPPPHAYGYGPYGCGYGLQLPPYAPPSALFAAAAAAAAAAAFHPHSPPPPPPPHGAAAELARTAFGYRPHPLGAALPGPLPASAAKAGGPGASALARSPFSIESIIGGSLGPAAAAAAAAQAAAAAQASPSPSPVAAPPAPGSSGGGCAAQAAVGPAAALTRSLVAAAAAAASSVSSSAALGTLHQGTALSSVENFTARISNC
notes: Forkhead box D1 (FOXD1) fused to GST; also called immobilized GST-FOXD1; purified GST-FOXD1; source: bacterially expressed; 'purified' (results)
